Test results reported in patent US20090041783A1 (MOCHIDA PHARMACEUTICAL, published 2009).
Numbering of substitutions follows the chain as printed.

B1: F1245-7-1 (antibody, V domains shown)
VH: QVQLQQPGAELVKPGASVKLSCKASGYTFTSYWMHWVKQRPGQGLEWIGMIHPNSGSTNYNEKFKSKATLTVDKSSSTAYMQLSSLTSEDSAVYYCASPVTAVVEYYFDYWGQGTTLTVSS
VL: SIVMTQTPKFLLVSAGDRVTITCKASQSVSNDVAWYQQKPGQSPKLLIYYASNRYTGVPDRFTGSGYGTDFTFTISTVQAEDLAVYFCQQDYSSLTFGSGTKLEIKR
B2: F1249-20-1 (antibody, V domains shown)
VH: QVQLQQSGAELVRPGVSVKISCKGSGYTFTDYAMHWVKQSHAKSLEWIGVISTYYGDTSYNQKFKGKATMTVDKSSSTAYMELARLTSEDSAIYYCARAEDYDPWFAYWGQGTLVTVSA
VL: DIVLTQSPASLAVSLGQRATISCRASESVDSYGNSFMYWYQQKPGQPPKLLIYRASNLESGIPARFSGSGSRTDFTLTINPVEADDVATYYCQQSDEDPLTFGAGTKLELKR
B3: F1249-22-1 (antibody, V domains shown)
VH: QVQLQQPGAELVKPGASVKLSCKASGYTFTSYWMQWVKERPGQGLEWIGEIDPSDSYTNYNQKFKGKATLTVDTSSSTACMQLSSLTSEDSAVYYCARGAITTATLDYWGQGTTLTVSS
VL: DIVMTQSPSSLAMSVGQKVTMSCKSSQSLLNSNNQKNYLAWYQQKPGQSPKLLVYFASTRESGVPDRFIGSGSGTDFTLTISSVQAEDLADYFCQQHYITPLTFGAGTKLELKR
B4: F1251-1-1 (antibody, V domains shown)
VH: QVNLLQSGAALVKPGASVKLSCKASGYTFTDYYIHWVKQSHGKSLEWIGYINPNSGYTNYNEKFKSKATLTVDKSTNTAYMELSRLTSEDSATYYCTRCNSGYGDWFAYWGQGTLLTVSS
VL: DIQMTQSPPVLSASVGDRVTLSCKASQNINKNLDWYQQKHGEAPKLLIYYTNNLQTDIPSRFSGSGSGTDYTLTISSLQPEDVATFYCYQYNSGPGTFGAGTKLELKR
B5: F1245-4-1 (antibody, V domains shown)
VH: QVQLQQPGAELVKPGASVKLSCKASGCTFTSYWMHWVKQRPGQGLEWIGMIHPNSDNTNYNEKFKSKATLTVDKSSSTAYMHLSSLTSEDSAVYYCATHYYDYVDYWGQGTTLTVSS
VL: NIVMTQTPKFLLVSAGDRVTITCKASQSVSNDVAWYQQKPGQSPKLLIYYASNRYTGVPDRFTGSGYGTDFTFTISTVQAEDLAVYFCQQDYSSPWTFGGGTKLEIKR
B6: F1249-18-2 (antibody, V domains shown)
VH: QVQLQQPGAELVKPGASVKLSCKASGYTFTSYWMHWLKQRPGQGLEWIGMIHPNSDITNYNEKFKNKATLTVDKSSSTAYMQLSSLTSEDSAVYYCARSGDYYAMDYWGQGTSVTVSS
VL: B5 VL with N1S, W96P
B7: F1245-5-1 (antibody, V domains shown)
VH: QVQLQQPGAELVKPGASVKLSCKASGYTFISYWMHWVKQRPGQGLEWIGMIHPNSGSTHYNEKFKSKATLTVDKSSSTAYMQLSSLTSEDSAVYYCARGGVTPVAYWGQGTLVTVSA
VL: B5 VL with N1S
B8: F1249-5-1 (antibody, V domains shown)
VH: B6 VH with D73A, S99L
VL: B5 VL with N1S, A34T, W96P
B9: F1249-3-2 (antibody, V domains shown)
VH: EVQLVESGGGLVKPGGSLKLSCAASGFTFSSYGMSWVRQTPDKRLEWVATISSGGSYTYYSDSVKGRFTISRDNAKNNLYLQLSSLKSQDTAIYYCARDSGYFDYWGQGTTLTVSS
VL: NIVLTQSPASLAVSLGQRATISCRASESVDSYGNSFMHWYQQKPGQPPKLLIYLASNLESGVPARFSGSGSRTDFTLTIDPVEADDAATYYCQQNNEDPRTFGGGTKLEIKR
B10: F1246-1-1 (antibody, V domains shown)
VH: EVQLVESGGDLVKPGGSLKLSCAASGFTFSSYGMSWVRQTPDKRLEWVATISNGGTYTYYPDSVKGRFTISRDNAKNTLYLQMSSLKSDDTAMYYCGRLRDYYAMDYWGQGTSVTVSS
VL: B2 VL with Y38H, D96N, L100W, A104G, L110I
B11: F1249-24-1 (antibody, V domains shown)
VH: B2 VH
VL: B2 VL with Y38H
B12: F1249-30-1 (antibody, V domains shown)
VH: B2 VH with T69A, E89D
VL: B2 VL with Y38H
B13: F1257-3-1 (antibody, V domains shown)
VH: QVTLKESGPGMLQPSKTLSLTCSFSGFSLSTSGMVVSWIRQPSGKSLEWLAAIDWDGDKYYNPSLKSRLTVSKDTSNTQVFLKISSVDIADTATYYCARTPYYGYKEAYYFDYWGQGVKVTVSS
VL: DIQMTQSPASLSASLEEIVTITCKASRAIDDYLSWYQQKPGKSPQLLIYDATSLADGVPSRFSGSRSGTQYSLKISRPQVDDSGIYYCLQSYSTPWTFGGGTKLDLKR

molecular target: T1, human GPVI extracellular region-human Fc fusion protein (hGPVI-hFc) (human); assay: competition ELISA on hGPVI-hFc plate; competitor: peroxidase-labelled F1232-37-2; +++ more than 50%, ++ 30-50%, + 10-30% inhibition
T1 construct: Expressed in COS-1, purified on Protein A; also called GPVI-HHH-hFc; hGPVIHHH-hFc
T1 sequence (chain, as listed by the source limits assumed): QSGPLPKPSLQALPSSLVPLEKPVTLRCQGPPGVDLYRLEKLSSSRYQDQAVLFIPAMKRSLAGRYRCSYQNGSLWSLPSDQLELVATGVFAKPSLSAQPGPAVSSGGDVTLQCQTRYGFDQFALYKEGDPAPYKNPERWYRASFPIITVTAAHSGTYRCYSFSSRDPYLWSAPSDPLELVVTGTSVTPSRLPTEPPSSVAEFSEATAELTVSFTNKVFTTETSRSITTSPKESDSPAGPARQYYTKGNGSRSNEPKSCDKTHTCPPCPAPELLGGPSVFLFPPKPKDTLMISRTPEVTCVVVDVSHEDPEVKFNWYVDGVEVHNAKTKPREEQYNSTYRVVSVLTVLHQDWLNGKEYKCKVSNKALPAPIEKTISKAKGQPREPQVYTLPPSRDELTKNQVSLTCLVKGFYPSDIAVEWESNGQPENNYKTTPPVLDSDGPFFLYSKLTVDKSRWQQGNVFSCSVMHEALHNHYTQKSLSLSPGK
Description: (§1) To analyze a property for each antibody obtained in EXAMPLE 13, binding to human GPVI-hFc, competition with F1232-37-2 described in EXAMPLE 4 and specificity for L9 loop were investigated. That is, as for the binding to human GPVI, according to the method of EXAMPLE 2, a binding activity to immobilized antigen was measured. For the binding activity, the range of absorbance from 0.5 to 1.0 is represented by “+”, from 1.0 to 2.0 by “++”, the range more than 2.0 by “+++”. The competitive test with F1232-37-2 was performed as follows. That is, according to the method by Nakane et al. (J. Histochem. Cytochem., 22, 1084, 1974), peroxidase (TOYOBO)-labeled F1232-37-2 antibody was prepared and an antibody concentration was calculated from the amount of the antibody used.
Next, by using the peroxidase-labeled antibody, the competitive test for a variety of purified antibody was performed. That is, 25 μL of the above labeled antibody and 25 μL of each purified antibody were added to well of hGP-hFc-immobilized plate. After incubation at 37° C. for one hour, the well was washed five times with the saline containing 0.05% Tween20, and the reaction mixture was developed with TMB solution (BioFix). After incubation at room temperature for 10 minutes, the reaction was terminated with 0.5 M sulfuric acid solution and an absorbance at 450 nm was measured with the plate spectrophotometer (Multi-Scan JX, Dainippon Pharmaceutical).

Binder	percent inhibition [%]
B1	10 to 30
B2	30 to 50
B3	10 to 30
B4	10 to 30
B5	30 to 50
B6	30 to 50
B7	30 to 50
B8	30 to 50
B9	30 to 50
B10	10 to 30
B11	> 50
B12	> 50

molecular target: T1, human GPVI extracellular region-human …; assay: ELISA, collagen on plate, hGPVI-hFc plus antibody; +++ more than 50%, ++ 30-50%, + 10-30% inhibition

Binder	percent inhibition [%]
B3	30 to 50
B4	10 to 30
B5	10 to 30
B6	> 50
B7	10 to 30
B8	10 to 30
B9	10 to 30
B11	10 to 30

molecular target: T1, human GPVI extracellular region-human …; assay: ELISA on immobilised hGPVI-hFc; + A450 0.5-1.0, ++ 1.0-2.0, +++ more than 2.0
Description: The hGPVI-hFc prepared by EXAMPLE 1B was diluted with D-PBS to 2 μg/mL and added to immunoplate (Maxisorp NUNC) at 50 μL/well. After incubation at 37° C. for one hour, the well was washed five times with ion-exchanged water, and D-PBS (pH7.4) containing 2% StabilGuard (Surmodics) was added to each well in 100 μL for blocking. Next, culture supernatant was added to each well and incubated at 37° C. for one hour. After incubation, the well was washed three times with the saline containing 0.05% Tween20. Peroxidase-labeled anti-mouse immunoglobulin antibody (DAKO, P260) was 1000-fold diluted with D-PBS containing 10% rabbit serum and added to each well at 50 μL. After incubation at 37° C. for one hour, washing in a similar manner was performed and TMB solution (BioFix) was added to each well. After ten minutes at room temperature, the reaction was terminated with 0.5 M sulfuric acid solution. Subsequently, absorbance at 450 nm was measured with the plate spectrophotometer (Multiscan JX, Dainippon Pharmaceutical). As a result, the cell whose culture supernatant reacted to hGPVI-hFc was selected and a cloning with limiting dilution method (“The Introduction to Monoclonal Antibody Experimental Procedure” written by Tamie Andoh and Takeshi Chiba (Kodansha, p 83)) was performed. Eight days later, screening was done in a similar manner and the antibody which reacts to hGPVI-hFc was selected.
as §1

Binder	absorbance [od]
B1	1 to 2
B2	> 2
B3	0.5 to 1
B4	0.5 to 1
B5	> 2
B6	> 2
B7	1 to 2
B8	1 to 2
B9	0.5 to 1
B10	1 to 2
B11	> 2
B12	> 2
B13	> 2

molecular target: T1, human GPVI extracellular region-human …; assay: ELISA of hybridoma culture supernatant on coated hGPVI-hFc (selection criterion)
Description: Next, culture supernatant was added to each well and incubated at 37° C. for one hour. After incubation, the well was washed three times with the saline containing 0.05% Tween20. Peroxidase-labeled anti-mouse immunoglobulin antibody (DAKO, P260) was 1000-fold diluted with D-PBS containing 10% rabbit serum and added to each well at 50 μL. After incubation at 37° C. for one hour, washing in a similar manner was performed and TMB solution (BioFix) was added to each well. After ten minutes at room temperature, the reaction was terminated with 0.5 M sulfuric acid solution. Subsequently, absorbance at 450 nm was measured with the plate spectrophotometer (Multiscan JX, Dainippon Pharmaceutical). As a result, the cell whose culture supernatant reacted to hGPVI-hFc was selected and a cloning with limiting dilution method (“The Introduction to Monoclonal Antibody Experimental Procedure” written by Tamie Andoh and Takeshi Chiba (Kodansha, p 83)) was performed. Eight days later, screening was done in a similar manner and the antibody which reacts to hGPVI-hFc was selected.
After one week, hybridoma, which produces a desired antibody was screened using the binding property to hGPVI-hFc and hGPVI-mL9-hFc prepared in EXAMPLE 7 as an index. That is, the purified hGPVI-hFc or hGPVI-mL9-hFc, which was prepared in EXAMPLE 1, was diluted with D-PBS (pH7.4) to 1 μg/mL. And 50 μL/well of the solution was added to make hGPVI-hFc or hGPVI-mL9-hFc-coated plate using the same method as that of EXAMPLE 2. Next, a culture supernatant was added to each well, and after incubation at room temperature for one hour, by the same method as that of EXAMPLE 2, using peroxidase-labeled anti-mouse immunoglobulin antibody (DAKO, P260) a reaction was performed to measure an absorbance. As a result, the cell producing an antibody that binds to the purified hGPVI-hFc (absorbance: equal to or more than one), but not hGPVI-mL9-hFc (abdorbance: equal to or less than 0.5) was selected and cloned by the method described in EXAMPLE 2. Eight through ten days later, a screening was done as with the similar way to obtain a hybridoma producing an L9-specific mouse anti-human GPVI antibody. As with EXAMPLE 2B (3), the obtained hybridoma was cultured and a monoclonal antibody was purified. The sub-type of each antibody was determined using IsoStrip Mouse Monoclonal antibody Isotyping Kit (Roche).

Binder	absorbance [absorbance]
B1	≥ 1
B2	≥ 1
B3	≥ 1
B4	≥ 1
B5	≥ 1
B6	≥ 1
B7	≥ 1
B8	≥ 1
B9	≥ 1
B10	≥ 1
B11	≥ 1
B12	≥ 1
